Experiment [1] deals with HLA-A*02:01. Put plainly: IEDB peptide-MHC binding, purified MHC/competitive/fluorescence; ≥ and ≤ were set here for values at or beyond the usual limits of such assays.
Experiment [2] has as its target HLA-B*15:01. The experiment is described as above.
The target in a further experiment is HLA-A*02:03. Put plainly: IEDB peptide-MHC binding, purified MHC/competitive/radioactivity; filed as Kd, often an IC50 or EC50 that approximates it; ≥ and ≤ were set here for values at or beyond the usual limits of such assays.
The target of experiment [3] is HLA-A*02:01. The experiment is described as above.
The target of a further experiment is HLA-A*02:17. The description is as above.
Another experiment deals with HLA-A*02:06. The experiment is described as above.
A further experiment has as its target HLA-A*24:02. The experiment can be described thus: IEDB peptide-MHC binding, purified MHC/competitive/fluorescence; ≥ and ≤ were set here for values at or beyond the usual limits of such assays.
Another experiment addresses HLA-A*11:01. Described as above.
The next experiment concerns the target HLA-A*03:01. Described as above.
Another experiment has as its target HLA-A*01:01. Put plainly: IEDB peptide-MHC binding, purified MHC/competitive/fluorescence; filed as Kd, often an IC50 or EC50 that approximates it; ≥ and ≤ were set here for values at or beyond the usual limits of such assays. The conditions noted are these: source organism: Influenza A virus (A/Swine/Indiana/9K035/99 (H1N2)).
Another experiment has as its target HLA-B*08:01. Put plainly: IEDB peptide-MHC binding, purified MHC/competitive/radioactivity; filed as Kd, often an IC50 or EC50 that approximates it; ≥ and ≤ were set here for values at or beyond the usual limits of such assays. Conditions: source organism: Dengue virus 1 Brazil/97-11/1997.
For experiment [4], the target named is HLA-B*15:01. The experiment is described as above. Conditions: source organism: Dengue virus 1 Brazil/97-11/1997.
The target in a further experiment is HLA-A*68:02. Described as above. Conditions: source organism: Dengue virus 4 Philippines/H241/1956.
Another experiment has as its target HLA-B*35:01. The experiment is described as above. Conditions: source organism: Dengue virus 2 Jamaica/1409/1983.
[5] abbreviates: source organism: Zaire ebolavirus.
[6] abbreviates: source organism: Dengue virus 1 Brazil/97-11/1997.
[7] abbreviates: source organism: Dengue virus 1 Nauru/West Pac/1974.
[8] abbreviates: source organism: Dengue virus 2 Jamaica/1409/1983.
Setting [9] is: source organism: Vaccinia virus WR.
The mark [10] stands for this setting: source organism: Dengue virus 3 Martinique/1243/1999.
Where [11] appears, read: source organism: Dengue virus 1 Singapore/S275/1990.
Setting [12] is: source organism: Dengue virus 3 Sri Lanka/1266/2000.
Setting [13] is: source organism: Sudan ebolavirus.
The mark [14] stands for this setting: source organism: Vaccinia virus.
Where [15] appears, read: source organism: Dengue virus 4 Philippines/H241/1956.

This is an account of results in the Immune Epitope Database (IEDB).

What is called IC50 is the concentration that gives 50% inhibition. Read a high IC50 as a need for much substance. By Kd is commonly meant a measure of binding affinity in units of concentration.

Consider LIHQGMHMV, for which the figures for the 50% inhibitory concentration (IC50) in the experiment with HLA-A*02:01 [1] (setting [5]) and with HLA-B*15:01 [2] (setting [5]) were 0.443 µM and at least 87.6 µM, respectively.
For the sequence LLFKTSAGV, the dissociation constant Kd in the experiment with HLA-A*02:03 (setting [6]) is 0.012 µM; with HLA-A*02:01 [3] (setting [7]) it was 0.0186 µM; with HLA-A*02:17 (setting [7]), 0.126 µM.
With FLIDGPETA, the Kd with HLA-A*02:03 (setting [8]) came to 0.0128 µM; with HLA-A*02:01 [3] (setting [8]), 0.0174 µM; in the experiment with HLA-A*02:17 (setting [8]), 1.68 µM; in the experiment with HLA-A*02:06 (setting [8]) it was 0.377 µM.
In the case of IEILNTIQF, the IC50 with HLA-A*24:02 (setting [9]) was at least 310 µM; with HLA-B*15:01 [2] (setting [9]), at least 139 µM.
In the case of LTYVQLESR, the concentration for half-maximal inhibition (IC50) with HLA-A*11:01 (setting [5]) stood at 1.63 µM; in the experiment with HLA-A*03:01 (setting [5]), 8.66 µM.
In the same order, the values of KAENTNTSK are 35.4 µM and at least 254 µM.
For ATTELRTFS, the concentration for half-maximal inhibition (IC50) with HLA-A*11:01 (setting [5]) is 11.1 µM; in the experiment with HLA-A*02:01 [1] (setting [5]) it was at least 202 µM; with HLA-A*03:01 (setting [5]), at least 123 µM.
AGVNVGEQY: the half-inhibitory concentration (IC50) with HLA-B*15:01 [2] (setting [5]) was 23.3 µM.
Turning to NPGTYVYFY, the half-maximal inhibitory concentration (IC50) with HLA-A*11:01 (source organism: Variola virus) is 38.7 µM; with HLA-A*24:02 (source organism: Variola virus), 54.9 µM; with HLA-A*03:01 (source organism: Variola virus), at least 424 µM.
For ILQKTERGV, the IC50 came out at 8.69 µM with HLA-A*02:01 [1] (setting [5]) and 63.3 µM with HLA-B*15:01 [2] (setting [5]).
In the case of KLNDWDFVV, the Kd with HLA-A*02:03 (setting [10]) turned out to be 0.0201 µM; with HLA-A*02:17 (source organism: Dengue virus 3 China/80-2/1980), 0.126 µM; with HLA-A*02:06 (setting [10]), 0.0446 µM.
Turning to STSADQQSLY, in the experiment with HLA-A*01:01, the dissociation constant (Kd) came to 0.0187 µM.
Turning to KVQRQIQVH, the IC50 is 15.8 µM with HLA-A*11:01 (setting [5]); 15.4 µM with HLA-A*24:02 (setting [5]); at least 214 µM in the experiment with HLA-A*02:01 [1] (setting [5]); 45.2 µM with HLA-B*15:01 [2] (setting [5]); 17.6 µM in the experiment with HLA-A*03:01 (setting [5]).
Turning to AMVTLRKER, the results for the half-maximal inhibitory concentration (IC50) with HLA-A*11:01 (setting [5]), with HLA-A*02:01 [1] (setting [5]) and in the experiment with HLA-A*03:01 (setting [5]) were 29.6 µM, 30.3 µM and 30.2 µM, respectively.
On to GGQQKNSQK, for which the concentration for half-maximal inhibition (IC50) is 1.59 µM with HLA-A*11:01 (setting [5]) and at least 119 µM with HLA-A*03:01 (setting [5]).
In the case of VLDDGIYRI, the figures for the equilibrium dissociation constant (Kd) with HLA-A*02:01 [3] (setting [11]) and with HLA-A*02:17 (setting [11]) were 0.00544 µM and 0.585 µM, respectively.
Regarding SLCLMMILPA, the figures for the dissociation constant Kd with HLA-A*02:03 (setting [12]), in the experiment with HLA-A*02:17 (setting [12]) and in the experiment with HLA-A*02:06 (setting [12]) were 0.0197 µM, 0.25 µM and 0.0649 µM, respectively.
With HQLWTTLLSL, the Kd with HLA-B*08:01 worked out at 1.99 µM; with HLA-B*15:01 [4] it was 0.0012 µM; in the experiment with HLA-A*02:06 (setting [6]), 0.0918 µM.
On to KAIDFLLRR, for which the IC50 in the experiment with HLA-A*11:01 (setting [13]) is 2.74 µM; with HLA-A*02:01 [1] (setting [13]) it was at least 100 µM; with HLA-A*03:01 (setting [13]), 5.75 µM.
For the sequence IMASENSSA, the results for the IC50 in the experiment with HLA-A*02:01 [1] (setting [5]) and in the experiment with HLA-B*15:01 [2] (setting [5]) were 2.48 µM and at least 106 µM, respectively.
Consider KSSKYYIKN, for which the IC50 is at least 1410 µM with HLA-A*24:02 (setting [14]) and at least 1830 µM with HLA-A*03:01 (setting [14]).
With RTIMAVLFVV, the Kd in the experiment with HLA-A*68:02 was 0.436 µM; with HLA-A*02:01 [3] (setting [15]) it was 0.00182 µM; in the experiment with HLA-A*02:17 (setting [15]) it was 0.887 µM; with HLA-A*02:06 (setting [15]) it was 0.0197 µM.
For MMATIGIAL, the Kd with HLA-A*02:03 (setting [8]) turned out to be 0.00567 µM; in the experiment with HLA-A*02:01 [3] (setting [8]), 0.00519 µM; in the experiment with HLA-A*02:17 (setting [8]), 3.43 µM; in the experiment with HLA-B*35:01, 1.11 µM.
